According to the RNAGym collection of RNA variant scans (doi:10.1073/pnas.2313332121):

B1: TPR t1 (parent)
chain: GACCAAUCUGCCCUCAGAGCUCGAGAACAUCUUCGGAUGCAGAGGAGGCAGGCUUCGGUGGCGCGAUAGCGCCAACGUCCUCAACCUCCAAUGCAUCCCACCACAUGAUGAUGCCUGAAGAGCCUUGGUUUUUUG

Variants of: B1
Experiment: polymerase ribozyme fitness, log enrichment relative to wild type (log ratio); higher = more active; in vitro selection for triplet polymerase activity
Outline: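 Mutant libraries of both subunits of a heterodimeric triplet polymerase ribozyme were PCR-built, transcribed, and selected once in triplicate, with frozen incubation at −7 °C and capture of gel-excised extended constructs on streptavidin beads before RT-PCR. Illumina sequencing of input and output libraries was filtered to genotypes with ≥10 input reads and ≥1 read per output. Fitness is the logarithm of genotype enrichment over wild-type enrichment, using inverse-variance-weighted replicate averages. The logarithm is base 2.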

| Variant | polymerase ribozyme fitness (log ratio) |
| --- | --- |
| C3U C12U G63A C89G | -3.24 |
| C4A A43G U130C | -2.6 |
| C3U C89A | -2.23 |
| C3U C89U | -0.863 |
| C3U C12A G69U G117A | -2.56 |
| C3U C70G | -2.84 |
| C3U C70U | -0.813 |
| C4A A43G G47C C64U C86G U125G G127C | -2.57 |
| C3U C22A G36U G71C A84U C123A | -5.28 |
| C4G C13A A24C G63A G71C G113U G128C | -6.72 |
| C3U C49A A84C C104U G120U | -0.46 |
| C3U C13U G63A | -1.19 |
| C4A G135U | -2.46 |
| C3U G17U | -3.11 |
| C3U G17A | -3.24 |
| C4G C80A | -3.83 |
| C3U C70U U78G U87A | -1.1 |
| C4A G63A A83U A118G | -3.12 |
| C3U C40A C56U G120A | -0.0248 |
| C4A A37U G93A | -2.66 |
| C3U C53U | -1.24 |

| Variant | polymerase ribozyme fitness (log ratio) |
| --- | --- |
| C3U C12U | -1.59 |
| C4G C8G U81A A111C | -2.27 |
| C3U G48A C72U U129G | -4.31 |
| C4G A29G U54C | -2.97 |
| C4A U78A C124G | 1.08 |
| C4G A46U C53U C70A | -2.97 |
| C3U C13U G44U U55C G63A A108U U112G G113C | -6.03 |
| C3U C82A | -0.533 |
| C4G A121C | 0.946 |
| C3U C13A G39U C53A C56U G120U | -0.266 |
| C4G C8U A18U A43U U81A | -2.85 |
| C3U C56U G77C | -1.42 |
| C4G C73U C101A U129A | -1.48 |
| C4G C28A C40G G48U C49G G63A U96G C114G U116G | -6.86 |
| C3U G47A C49G G69A | -4.22 |
| C4A G48C C62A | -3.18 |
| C4A G69U G110A U112A G117A | -3.21 |
| C3U G69U | 0.198 |
| C3U G69C | -1.44 |
| C3U C8U G61C G120A | 0.504 |
| C3U G44C A46U G110A | -2.98 |

| Variant | polymerase ribozyme fitness (log ratio) |
| --- | --- |
| C3U G10A | 0.634 |
| C3U G42U C56G | -2.49 |
| C3U C53G U112A | 0.998 |
| C3U G57U G69A | -3.04 |
| C4A A18C G42U C86G C114G | -3.47 |
| C3U G39U U81C A111C | -2.34 |
| C4A C72A G113A | -3.57 |
| C4A U9G C40U G44A U55C C88A G120C | -3.07 |
| C4G C12G G36C G44C C97G | -2.86 |
| C3U U92A | -2.91 |
| C4A A5G A111C | -0.259 |
| C4A G128C | -1.53 |
| C4G C13G C49A G60A | -4.79 |
| C3U C102U C114G C124G | -4.14 |
| C3U C73U U87C C88U A111G C123A | -3.08 |
| C3U C12U G63A A66C U133A | -2.5 |
| C3U C12A A46U | -1.98 |
| C4A G71A A100U C123U | -2.04 |
| C3U U109G G110A | -4.81 |
| C3U C8A G57U G77U C79U A83C C89U C101G | -3.64 |
| C4G A50U C72G | -3.42 |

| Variant | polymerase ribozyme fitness (log ratio) |
| --- | --- |
| C4A C72U G110A U129G | -5.59 |
| C3U C13A | -1.28 |
| C4G A5U C73G C89U C101G G120A G135A | -3.57 |
| C4A A41G U106A | -1.87 |
| C4A C49G A83G C88A C102U G120C | -5.38 |
| C3U C11U A50U C64U U81G C102U G128A | -3.47 |
| C4A A6C C53A C82A G117C | -7.24 |
| C3U U130C | 0.391 |
| C3U C8A C20U C53U G58A G77A A90G C101U | -3.06 |
| C4A U14G C49A C73G C86U | -4.9 |
| C4A G52A C73A | -2.51 |
| C3U G45A G71A C79U | -1.81 |
| C4G C11A A16G A37U G69A G77C G113U C124U | -4.9 |
| C3U G45A G61U A100U C124U | 0.286 |
| C3U C123U | 0.881 |
| C3U C11U G42C C56A A74C A105U G120C | -6.23 |
| C4G C8G | -0.396 |
| C3U U9A A37U G113A | -0.314 |
| C3U G61U C80G | -5.52 |
| C3U C40G G47A C62U A84G | -3.81 |
